What was measured:
[1] = tested on: human B2M locus; experiment: Editing (indel rate by NGS) at the B2M locus by catalytically-dead CasX variants (Example 8); format: cell-based; conditions: B2M-targeting spacer 7.37, HEK293T, six days after transfection
[2] = tested on: endogenous B2M (beta-2-microglobulin) gene; experiment: B2M protein expression by HLA antibody staining and flow cytometry (Example 1); format: cell-based, human; conditions: HEK293T, seven days post-transfection
Source text: dXR variant plasmids encoding constructs having the configuration of U6-gRNA+Ef1α-NLS-GGS-dCasX491-GGS-KRAB variant-NLS (dCasX491 refers to catalytically-dead CasX 491), were transiently transfected into HEK293T cells in an arrayed 96-well format. These constructs also contained a 2× FLAG sequence, as well as sequences encoding either a gRNA scaffold 174 (SEQ ID NO: 2238) having a spacer (spacer 7.37) targeting the endogenous B2M (beta-2-microglobulin) gene or a non-targeting control (spacer 0.0), which were all cloned upstream of a P2A-puromycin element on the plasmid. Four different effector domains were tested in addition to the “naked” dCasX491 (KRAB variant domains listed in Table 9; spacer sequences listed in Table 10; sequences of additional elements listed in Table 11). The corresponding protein sequences of the dXR molecule are listed in Table 13, and the generic configuration of the dXR molecule is illustrated in FIG. 38. Positive and negative controls based on a catalytically-dead Cas9 nuclease (with or without a ZNF10 repressor) with a B2M-targeting gRNA (spacer 7.14) or a non-targeting gRNA control (spacer 0.0) were included, along with a catalytically-active CasX 491 and gRNA with the same 7.37 and 0.0 spacers. Two days after transfection, total RNA was harvested, and reverse transcribed to generate a cDNA library. Changes in gene expression were calculated by performing qPCR on the targeted gene and a housekeeping gene as reference. Relative gene expression represents the amount of target-specific RNA relative to a reference gene normalized to the non-targeting guide condition for two biological replicates. In addition to the wells used for RNA measurements, a separate set of wells was harvested seven days post-transfection and analyzed for B2M protein expression. Expression of B2M protein was determined by using an antibody that detects the B2M-dependent HLA protein complex on the cell surface.

Molecule	percent editing at the B2M locus measured as indel rate [1]	% of cells negative for the B2M protein ([2]; B2M-targeting gRNA) [%]	% cells expressing B2M protein ([2]; spacer 0.0 (non-targeting)) [%]	% cells expressing B2M protein ([2]; spacer 7.37 (B2M-targeting, CasX)) [%]
dCasX527: dCasX variant, SEQ ID NO: 24 (protein) QEIKRINKIRRRLVKDSNTKKAGKTRGPMKTLLVRVMTPDLRERLENLRKKPENIPQPISNTSRANLNKLLTDYTEMKKAILHVYWEEFQKDPVGLMSRVAQPASKKIDQNKLKPEMDEKGNLTTAGFACSQCGQPLFVYKLEQVSEKGKAYTNYFGRCNVAEHEKLILLAQLKPEKDSDEAVTYSLGKFGQRALDFYSIHVTKESTHPVKPLAQIAGNRYASGPVGKALSDACMGTIASFLSKYQDIIIEHQKVVKGNQKRLESLRELAGKENLEYPSVTLPPQPHTKEGVDAYNEVIARVRMWVNLNLWQKLKLSRDDAKPLLRLKGFPSFPLVERQANEVDWWDMVCNVKKLINEKKEDGKVFWQNLAGYKRQEALRPYLSSEEDRKKGKKFARYQLGDLLLHLEKKHGEDWGKVYDEAWERIDKKVEGLSKHIKLEEERRSEDAQSKAALTDWLRAKASFVIEGLKEADKDEFCRCELKLQKWYGDLRGKPFAIEAENSILDISGFSKQYNCAFIWQKDGVKKLNLYLIINYFKGGKLRFKKIKPEAFEANRFYTVINKKSGEIVPMEVNFNFDDPNLIILPLAFGKRQGREFIWNDLLSLETGSLKLANGRVIEKTLYNRRTRQDEPALFVALTFERREVLDSSNIKPMNLIGVARGENIPAVIALTDPEGCPLSRFKDSLGNPTHILRIGESYKEKQRTIQAKKEVEQRRAGGYSRKYASKAKNLADDMVRNTARDLLYYAVTQDAMLIFANLSRGFGRQGKRTFMAERQYTRMEDWLTAKLAYEGLSKTYLSKTLAQYTSKTCSNCGFTITSADYDRVLEKLKKTATGWMTTINGKELKVEGQITYYNRYKRQNVVKDLSVELDRLSEESVNNDISSWTKGRSGEALSLLKKRFSHRPVQEKFVCLNCGFETHAAEQAALNIARSWLFLRSQEYKKYQTNKTTGNTDKRAFVETWQSFYRKKLKEVWKPAV	did not exhibit editing	–	–	–
dCasX668: dCasX variant, SEQ ID NO: 59355 (protein) QEIKRINKIRRRLVKDSNTKKAGKTRGPMKTLLVRVMTPDLRERLENLRKKPENIPQPISNTSRANLNKLLTDYTEMKKAILHVYWEEFQKDPVGLMSRVAQPASKKIDQNKLKPEMDEKGNLTTAGFACSQCGQPLFVYKLEQVSEKGKAYTNYFGRCNVAEHEKLILLAQLKPEKDSDEAVTYSLGKFGQRALDFYSIHVTKESTHPVKPLAQIAGNRYASSPVGKALSDACMGTIASFLSKYQDIIIEHQKVVKGNQKRLESLRELAGKENLEYPSVTLPPQPHTKEGVDAYNEVIARVRMWVNLNLWQKLKLSRDDAKPLLRLKGFPSFPLVERQANEVDWWDMVCNVKKLINEKKEDGKVFWQNLAGYKRQEALRPYLSSEEDRKKGKKFARYQLGDLLLHLEKKHGEDWGKVYDEAWERIDKKVEGLSKHIKLEEERRSEDAQSKAALTDWLRAKASFVIEGLKEADKDEFCRCELKLQKWYGDLRGKPFAIEAENSILDISGFSKQYNCAFIWQKDGVKKLNLYLIINYFKGGKLRFKKIKPEAFEANRFYTVINKKSGEIVPMEVNFNFDDPNLIILPLAFGKRQGREFIWNDLLSLETGSLKLANGRVIEKTLYNRRTRQDEPALFVALTFERREVLDSSNIKPMNLIGVARGENIPAVIALTDPEGCPLSRFKDSLGNPTHILRIGESYKEKQRTIQAKKEVEQRRAGGYSRKYASKAKNLADDMVRNTARDLLYYAVTQDAMLIFANLSRGFGRQGKRTFMAERQYTRMEDWLTAKLAYEGLPSKTYLSKTLAQYTSKTCSNCGFTITSADYDRVLEKLKKTATGWMTTINGKELKVEGQITYYNRYKRQNVVKDLSVELDRLSEESVNNDISSWTKGRSGEALSLLKKRFSHRPVQEKFVCLNCGFETHAAEQAALNIARSWLFLRSQEYKKYQTNKTTGNTDKRAFVETWQSFYRKKLKEVWKPAV	did not exhibit editing	–	–	–
dCasX676: dCasX variant, SEQ ID NO: 59357 (protein) QEIKRINKIRRRLVKDSNTKKAGKTRGPMKTLLVRVMTPDLRERLENLRKKPENIPQPISNTSRANLNKLLTDYTEMKKAILHVYWEEFQKDPVGLMSRVAQPASKKIDQNKLKPEMDEKGNLTTAGFACSQCGQPLFVYKLEQVSEKGKAYTNYFGRCNVAEHEKLIKLAQLKPEKDSDEAVTYSLGKFGQRALDFYSIHVTKESTHPVKPLAQIAGNRYASSPVGKALSDACMGTIASFLSKYQDIIIEHQKVVKGNQKRLESLRELAGKENLEYPSVTLPPQPHTKEGVDAYNEVIARVRMWVNLNLWQKLKLSRDDAKPLLRLKGFPSFPLVERQANEVDWWDMVCNVKKLINEKKEDGKVFWQNLAGYKRQEALRPYLSSEEDRKKGKKFARYQLGDLLLHLEKKHGEDWGKVYDEAWERIDKKVEGLSKHIKLEEERRSEDAQSKAALTDWLRAKASFVIEGLKEADKDEFCRCELKLQKWYGDLRGKPFAIEAENSILDISGFSKQYNCAFIWQKDGVKKLNLYLIINYFKGGKLRFKKIKPEAFEANRFYTVINKKSGEIVPMEVNFNFDDPNLIILPLAFGKRQGREFIWNDLLSLETGSLKLANGRVIEKTLYNRRTRQDEPALFVALTFERREVLDSSNIKPMNLIGVARGENIPAVIALTDPEGCPLSRFKDSLGNPTHILRIGESYKEKQRTIQAKKEVEQRRAGGYSRKYASKAKNLADDMVRNTARDLLYYAVTQDAMLIFANLSRGFGRQGKRTFMAERQYTRMEDWLTAKLAYEGLPSKTYLSKTLAQYTSKTCSNCGFTITSADYDRVLEKLKKTATGWMTTINGKELKVEGQITYYNRYKRQNVVKDLSVELDRLSEESVNNDISSWTKGRSGEALSLLKKRFSHRPVQEKFVCLNCGFETHAAEQAALNIARSWLFLRSQEYKKYQTNKTTGNTDKRAFVETWQSFYRKKLKEVWKPAV	did not exhibit editing	–	–	–
dCasX491: catalytically-dead CasX 491, SEQ ID NO: 18 (protein) QEIKRINKIRRRLVKDSNTKKAGKTGPMKTLLVRVMTPDLRERLENLRKKPENIPQPISNTSRANLNKLLTDYTEMKKAILHVYWEEFQKDPVGLMSRVAQPASKKIDQNKLKPEMDEKGNLTTAGFACSQCGQPLFVYKLEQVSEKGKAYTNYFGRCNVAEHEKLILLAQLKPEKDSDEAVTYSLGKFGQRALDFYSIHVTKESTHPVKPLAQIAGNRYASGPVGKALSDACMGTIASFLSKYQDIIIEHQKVVKGNQKRLESLRELAGKENLEYPSVTLPPQPHTKEGVDAYNEVIARVRMWVNLNLWQKLKLSRDDAKPLLRLKGFPSFPLVERQANEVDWWDMVCNVKKLINEKKEDGKVFWQNLAGYKRQEALRPYLSSEEDRKKGKKFARYQLGDLLLHLEKKHGEDWGKVYDEAWERIDKKVEGLSKHIKLEEERRSEDAQSKAALTDWLRAKASFVIEGLKEADKDEFCRCELKLQKWYGDLRGKPFAIEAENSILDISGFSKQYNCAFIWQKDGVKKLNLYLIINYFKGGKLRFKKIKPEAFEANRFYTVINKKSGEIVPMEVNFNFDDPNLIILPLAFGKRQGREFIWNDLLSLETGSLKLANGRVIEKTLYNRRTRQDEPALFVALTFERREVLDSSNIKPMNLIGVARGENIPAVIALTDPEGCPLSRFKDSLGNPTHILRIGESYKEKQRTIQAKKEVEQRRAGGYSRKYASKAKNLADDMVRNTARDLLYYAVTQDAMLIFANLSRGFGRQGKRTFMAERQYTRMEDWLTAKLAYEGLSKTYLSKTLAQYTSKTCSNCGFTITSADYDRVLEKLKKTATGWMTTINGKELKVEGQITYYNRYKRQNVVKDLSVELDRLSEESVNNDISSWTKGRSGEALSLLKKRFSHRPVQEKFVCLNCGFETHAAEQAALNIARSWLFLRSQEYKKYQTNKTTGNTDKRAFVETWQSFYRKKLKEVWKPAV	did not exhibit editing	~10	–	–
dXR4: dCasX491 fused to ZNF334 KRAB domain; protein SEQ ID NO: 59441 (protein) MAPKKKRKVSRGGSGGGSAQEIKRINKIRRRLVKDSNTKKAGKTGPMKTLLVRVMTPDLRERLENLRKKPENIPQPISNTSRANLNKLLTDYTEMKKAILHVYWEEFQKDPVGLMSRVAQPASKKIDQNKLKPEMDEKGNLTTAGFACSQCGQPLFVYKLEQVSEKGKAYTNYFGRCNVAEHEKLILLAQLKPEKDSDEAVTYSLGKFGQRALDFYSIHVTKESTHPVKPLAQIAGNRYASGPVGKALSDACMGTIASFLSKYQDIIIEHQKVVKGNQKRLESLRELAGKENLEYPSVTLPPQPHTKEGVDAYNEVIARVRMWVNLNLWQKLKLSRDDAKPLLRLKGFPSFPLVERQANEVDWWDMVCNVKKLINEKKEDGKVFWQNLAGYKRQEALRPYLSSEEDRKKGKKFARYQLGDLLLHLEKKHGEDWGKVYDEAWERIDKKVEGLSKHIKLEEERRSEDAQSKAALTDWLRAKASFVIEGLKEADKDEFCRCELKLQKWYGDLRGKPFAIEAENSILDISGFSKQYNCAFIWQKDGVKKLNLYLIINYFKGGKLRFKKIKPEAFEANRFYTVINKKSGEIVPMEVNFNFDDPNLIILPLAFGKRQGREFIWNDLLSLETGSLKLANGRVIEKTLYNRRTRQDEPALFVALTFERREVLDSSNIKPMNLIGVARGENIPAVIALTDPEGCPLSRFKDSLGNPTHILRIGESYKEKQRTIQAKKEVEQRRAGGYSRKYASKAKNLADDMVRNTARDLLYYAVTQDAMLIFANLSRGFGRQGKRTFMAERQYTRMEDWLTAKLAYEGLSKTYLSKTLAQYTSKTCSNCGFTITSADYDRVLEKLKKTATGWMTTINGKELKVEGQITYYNRYKRQNVVKDLSVELDRLSEESVNNDISSWTKGRSGEALSLLKKRFSHRPVQEKFVCLNCGFETHAAEQAALNIARSWLFLRSQEYKKYQTNKTTGNTDKRAFVETWQSFYRKKLKEVWKPAVRSGGSGGGSTSKMKKFQIPVSFQDLTVNFTQEEWQQLDPAQRLLYRDVMLENYSNLVSVGYHVSKPDVIFKLEQGEEPWIVEEFSNQNYPDTSPKKKRKV	–	–	98.23	19.80

Reference: patent publication US12553037B2, “Engineered class 2, type V repressor systems” (Scribe Therapeutics Inc., priority 2021, dated 2026)
